Reference: the supplement of paper PMC10567573

B1: ZBTB22 (parent)
chain: HTGLKPYECGVCAKKFMWRDSFMR

Variants of: B1
Assay: protein stability index of a GFP-peptide fusion (GPS, HEK-293T) (PSI 1-6); higher = more stable
Conditions: c terminus: a fixed tail appended
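Also: lentivirally expressed fusions sorted by FACS into six bins by GFP to DsRed ratio, PSI derived from sequencing read proportions per bin multiplied by bin number.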

Protein stability index: each site, then its substitutions
P6: F 2.28; H 2.3; I 1.45; K 3.36; L 2.99; M 2.6; N 1.65; Q 2.26; R 2.1; S 2.62; T 2.99; V 1.1; Y 2.11
Y7: A 2.64; C 2.68; D 1.82; E 1.3; F 2.27; G 2.84; I 3.53; K 3.09; L 2.73; M 2.08; N 2.43; P 1.34; Q 1.77; S 1.97; T 3.12; V 1.67
E8: C 1.96; D 2.94; F 2.2; I 2.78; L 1.49; M 2.26; P 2.59; T 2.61; Y 1.3
C9: A 1.46; D 1.85; E 1.1; F 3.19; G 2.23; H 1.48; I 1.98; K 2.22; L 2.75; M 2.58; N 2.26; P 2.65; Q 1.65; R 1.8; S 1.42; T 1.78; V 2.02; W 2.35
G10: A 2.82; C 2.58; D 1.98; E 2.44; F 2.12; H 1.96; K 2.19; L 2.17; M 1.64; N 2.62; P 1.92; Q 2.19; R 2.01; S 1.47; T 1.84; V 4.2; Y 3.51
V11: D 3.26; E 2.09; F 2.4; G 1.25; H 2.37; I 3.5; K 2.98; L 1.85; N 1.37; P 3.87; Q 1.8; R 1.75; T 1.83; Y 2.59
C12: A 1.62; D 1.12; E 3.07; G 3.24; I 3.24; K 2.58; N 2.56; P 1.73; S 2.56; T 2.56; W 3.06; Y 2.91
A13: D 1; E 1.56; F 3.02; G 1.54; H 2.56; I 2.5; K 1.22; L 2.64; M 3.7; Q 1.55; W 3.78
K14: A 1.26; C 2.55; D 1.91; E 1.9; F 1.99; I 1.66; L 1.82; P 1.21; Q 2.53; T 2.19; W 2.78; Y 3.07
K15: C 2.1; D 2.52; F 2; G 2.95; H 3.5; I 1.77; L 1.52; M 2.88; N 2.26; Q 2.05; R 2.86; S 2.12; T 1.61; V 1.77; W 1.79; Y 2.76
F16: A 1.1; C 2.57; D 2.45; E 1.31; H 1.6; I 1.6; K 1.32; M 2.46; N 1.39; P 3; Q 2.16; R 2.1; S 3.33; V 1.95; Y 3.36
M17: A 2.39; C 2.27; D 1.84; F 3.05; I 2.8; K 1.27; L 2.18; P 2.35; Q 1.64; R 1.39; S 1.9; T 3.13; W 2.45; Y 1.53
